# Measured values as given in publication PMC9142589, “Automated vitrification of cryo-EM samples with controllable sample thickness using suction and real-time optical inspection” (Nature Communications, 2022).
# B1: Horse spleen apoferritin (natural protein)
# chain: SQIRQNYSTEVEAAVNRLVNLYLRASYTYLSLGFYFDRDDVALEGVCHFFRELAEEKREGAERLLKMQNQRGGRALFQDLQKPSQDEWGTTLDAMKAAIVLEKSLNQALLDLHALGSAQADPHLCDFLESHFLDEEVKLIKKMGDHLTNIQRLVGSQAGLGEYLFERLTLK
# notes: horse spleen apoferritin; the X-ray model of horse spleen apoferritin (PDB 6RJH) was fitted into the map; source: bought: Sigma (9013-31-4), purified by gel filtration (Superdex 200 Increase 3.2/300) immediately before vitrification
# Target: the molecule itself
# Assay: cryo-EM structure; single particle analysis; apoferritin at 2.5 µM in 150 mM NaCl, 25 mM Tris pH 7.5, 2 mM DTT; 91,000 particles; X-ray model PDB 6RJH fitted into the map
protein,measurement,value
B1,binding result,binds
